Where “and” joins values, the source holds several entries; their conditions need not be identical. Identical values can stand only once.

Test [1] has as its target FluPolB, influenza B/Memphis/2003 polymerase heterotrimer (wild type) (influenza B virus B/Memphis/2003) (UniProt Q5V8Z9). As to the kind of experiment: mass photometry.
Test [2] concerns the target FluPolA/H7N9-WT, wild-type influenza A/Zhejiang/DTID-ZJU01/2013(H7N9) polymerase heterotrimer (influenza A virus A/Zhejiang/DTID-ZJU01/2013(H7N9)) (UniProt M9TI86). The experiment in a line: SEC. In general terms: Size exclusion chromatography separates by hydrodynamic size, large species first.

The term stoichiometry N denotes the number of molecules, sites or subunits per partner or assembly. With “FluPolB, influenza B/Memphis/2003 polymerase heterotrimer (wild type) (from UniProt Q5V8Z9;Q5V8Y6;Q5V8X3) (complex)”, in test [1], the fraction of dimers was 7% and 15%; the stoichiometry N came to 2.

Take “FluPolA/H7N9-WT, wild-type influenza A/Zhejiang/DTID-ZJU01/2013(H7N9) polymerase heterotrimer (from UniProt M9TI86;M9TLW3;X5F427) (complex)”: in test [2], the stoichiometry N was 2.
